This note sets out measurements from patent publication US20180117084A1.

This assay deals with full-length CTLA-4 (flCTLA-4) secreted by human dendritic cells on microvesicles/exosomes (human) (UniProt P16410). As to the kind of experiment: cell-based or functional assay.
Chain of UniProt P16410 (P16410 36-223 limits assumed): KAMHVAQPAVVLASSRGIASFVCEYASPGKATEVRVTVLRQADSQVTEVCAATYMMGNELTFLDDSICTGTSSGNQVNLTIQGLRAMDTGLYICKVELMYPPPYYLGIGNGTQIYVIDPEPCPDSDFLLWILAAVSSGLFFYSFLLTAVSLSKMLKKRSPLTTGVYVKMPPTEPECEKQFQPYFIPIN

The substance “αHuman CTLA-4 clone BNI3 (cat #: 555851, BD Pharmingen) (antibody)” yielded a percentage of CFSE+ recipient DC after pre-clearance of supernatant with αCTLA-4 beads (20 minutes at 4 C, 0.1% sodium azide) of 45%; an uptake of CFSE-labeled exosomes by unlabeled DC after incubation of supernatant with αCTLA-4 coated beads, antibody at 5 µg/ml of 26%; an uptake of CFSE-labeled exosomes by unlabeled DC after incubation of supernatant with αCTLA-4 coated beads, antibody at 50 µg/ml of 35%.
